Laboratory results taken from US5362852A, “Modified peptide derivatives conjugated at 2-hydroxyethylamine moieties” (Pfizer Inc., priority 1991, dated 1994).

T1: human CRF receptor (Homo sapiens, UniProt P34998)
T1 construct: human CRF receptor (prepared from cultured SK-N-SH cells); endogenous in cells; host or cells: SK-N-SH cells (human neuroblastoma), receptor preparation
T1 sequence (P34998 24-415): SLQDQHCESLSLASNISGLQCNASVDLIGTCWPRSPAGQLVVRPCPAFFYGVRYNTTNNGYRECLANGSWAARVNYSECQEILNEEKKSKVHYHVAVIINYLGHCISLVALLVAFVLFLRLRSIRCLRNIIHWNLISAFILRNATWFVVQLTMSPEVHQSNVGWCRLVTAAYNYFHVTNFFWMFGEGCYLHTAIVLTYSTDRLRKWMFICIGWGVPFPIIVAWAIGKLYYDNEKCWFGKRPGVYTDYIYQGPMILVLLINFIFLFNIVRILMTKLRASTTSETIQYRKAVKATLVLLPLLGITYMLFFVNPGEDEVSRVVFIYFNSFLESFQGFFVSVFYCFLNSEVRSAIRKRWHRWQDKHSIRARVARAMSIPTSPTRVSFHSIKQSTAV


Experiments:
human CRF receptor = target: T1, human CRF receptor; assay: ability to bind to the human CRF receptor (prepared from cultured SK-N-SH cells); assay type: binding; details: products dissolved in 0.05M sodium phosphate, pH 7.0
Method: The products were dissolved in 0.05M sodium phosphate, pH 7.0, and tested for their ability to bind to the human CRF receptor (prepared from cultured SK-N-SH cells).

[1] = target: human CRF receptor (human); assay: receptor binding assay on human CRF receptor prepared from cultured SK-N-SH cells

| Molecule | IC50 (human CRF receptor) [nM] | IC50 [1] [nM] |
| --- | --- | --- |
| CC[C@H](C)[C@H](NC(=O)[C@H](CC(=O)O)NC(=O)[C@H](CC(C)C)NC(=O)[C@H](CC(C)C)NC(=O)[C@H](CCCCN)NC(=O)[C@H](CCCNC(=N)N)NC(=O)[C@H](CC(N)=O)NC(=O)[C@H](CO)NC(=O)[C@H](Cc1c[nH]cn1)NC(=O)[C@H](C)NC(=O)[C@H](CCC(N)=O)NC(=O)[C@H](CCC(N)=O)NC(=O)[C@H](C)NC(=O)[C@H](CC(C)C)NC(=O)[C@H](CCC(N)=O)NC(=O)[C@H](CC(=O)O)NC(=O)[C@H](C)NC(=O)[C@H](CCCCN)NC(=O)[C@@H](NC(=O)[C@H](CC[S+](C)[O-])NC(=O)[C@H](CCC(=O)O)NC(=O)[C@H](CC(C)C)NC(=O)[C@@H](NC(=O)[C@H](CCC(=O)O)NC(=O)[C@H](CCCNC(=N)N)NC(=O)[C@H](CC(C)C)NC(=O)[C@H](CC(C)C)NC(=O)[C@H](Cc1c[nH]cn1)NC(=O)[C@H](Cc1ccccc1)NC(=O)[C@@H](NC(=O)[C@H](CC(C)C)NC(=O)[C@H](CC(=O)O)NC(=O)[C@H](CC(C)C)NC(=O)[C@H](CO)NC(=O)[C@@H](NC(=O)[C@@H]1CCCN1C(=O)[C@@H]1CCCN1C(=O)[C@H](CCC(=O)O)NC(=O)[C@H](CCC(N)=O)NC(=O)[C@@H](N)CO)[C@@H](C)CC)[C@@H](C)O)C(C)C)[C@@H](C)O)C(=O)N[C@@H](C)C(N)=O (stereo partly shown) [CRF [Met^21 O]] | 5 | – |
| underivatized CRF [Met^21 O] | – | 5 |
| SQEPPISLDLTFHLLREVLEXTKADQLAQQAHSNRKLLDIA (N-terminal Ser oxidised by periodate to glyoxylyl (=CH-CO-) and coupled as hydrazone to 6-((biotinoyl)amino)caproic acid hydrazide (biotin-X-hydrazide); Met 21 as the sulfoxide (Met^21 O)) [N-terminally biotinylated ovine CRF [Met^21 O]] | – | 5 |
| SQEPPISLDLTFHLLREVLEXTKADQLAQQAHSNRKLLDIA (N-terminal Ser oxidised by periodate to glyoxylyl (=CH-CO-) and coupled as hydrazone to Lucifer Yellow; Met 21 as the sulfoxide (Met^21 O)) [Lucifer Yellow conjugate of ovine CRF [Met^21 O]] | – | 5 |
